From patent US20240374671A1 (ACCELERON PHARMA, published 2024)

Experiments:
[1] = target: T1, monomeric hActRIIA (human, UniProt P27037 21-138, limits assumed); assay: SPR (Biacore), 37 C, mAb captured on anti-hFc chip, receptor injected
T1 construct: also called ActRIIA MONOMER; ActRIIA monomer
Protocol: (§1) Kinetic characterization of A01 antibody lineage (A01 (naïve parent), B01, C01, D01, E01 and F01) binding to monomeric and dimeric hActRIIB and hActRIIA was performed using standard BIACORE®-based analysis at 37° C. In brief, antibodies were captured on anti-hFcIgG Biacore chips and different concentrations of dimeric and monomeric ActRIIB or ActRIIA were injected in duplicates over the captured antibody and control surface. To obtain kinetic rate constants the data were double referenced and fit to a 1:1 interaction model using BiaEvaluation software (GE Healthcare). The equilibrium binding constant KD was determined by the ratio of binding rate constants kd/kₐ

[2] = target: T2, dimeric hActRIIA (human, UniProt P27037 21-138); assay: as above
T2 construct: also called ActRIIA DIMER; ActRIIA dimer
T2 sequence (P27037 21-138): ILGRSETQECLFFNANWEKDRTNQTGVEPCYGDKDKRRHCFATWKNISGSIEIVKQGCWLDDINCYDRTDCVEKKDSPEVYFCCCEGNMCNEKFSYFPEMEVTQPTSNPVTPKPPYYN
Protocol: as §1

[3] = target: T3, monomeric hActRIIB (human, UniProt Q13705 25-130, limits assumed); assay: SPR (Biacore), 37 C, mAb captured on anti-hFc chip, receptor injected, 1:1 fit
T3 construct: also called ActRIIB MONOMER; ActRIIB monomer
T3 sequence: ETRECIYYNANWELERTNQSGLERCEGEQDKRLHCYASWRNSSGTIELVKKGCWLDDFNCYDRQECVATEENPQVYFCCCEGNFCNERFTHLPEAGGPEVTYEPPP
Protocol: as §1

[4] = target: T4, dimeric hActRIIB (human, UniProt Q13705 25-130); assay: as above
T4 construct: also called ActRIIB DIMER; ActRIIB dimer
T4 sequence: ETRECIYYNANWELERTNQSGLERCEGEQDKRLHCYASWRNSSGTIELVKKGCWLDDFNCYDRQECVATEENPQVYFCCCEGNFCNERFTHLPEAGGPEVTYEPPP
Protocol: as §1

[5] = target: T1, monomeric hActRIIA; assay: SPR (BIACORE), 37 C, series of concentrations (not printed on the sheet)
Protocol: (§2) FIGS. 1A-1N depict kinetic characterization of A01 lineage antibodies binding to hActRIIB and hActRIIA as determined by BIACORE®-based analysis at 37° C. Monomeric or dimeric hActRIIB or hActRIIA was […]. FIGS. 1A-1D depict characterization of antibody A01 (parent) binding to ActRIIB monomer (FIG. 1A), ActRIIB dimer (FIG. 1B), ActRIIA monomer (FIG. 1C), and ActRIIA dimer (FIG. 1D). FIGS. 1E and 1F depict characterization of antibody B01 binding to ActRIIB monomer (FIG. 1E) and ActRIIB dimer (FIG. 1F). FIGS. 1G-1H depict antibody C01 binding to ActRIIB monomer (FIG. 1G) and ActRIIB dimer (FIG. 1H). FIGS. 1I-1J depict antibody D01 binding to ActRIIB monomer (FIG. 1I) and ActRIIB dimer (FIG. 1J). FIGS. 1K-1L depict antibody E01 binding to ActRIIB monomer (FIG. 1K) and ActRIIB dimer (FIG. 1L). FIGS. 1M-1N depict antibody F01 binding to ActRIIB monomer (FIG. 1M) and ActRIIB dimer (FIG. 1N).
(§3) Kinetic characterization of A01 antibody lineage (A01 (naïve parent), B01, C01, D01, E01 and F01) binding to monomeric and dimeric hActRIIB and hActRIIA was performed using standard BIACORE®-based analysis at 37° C. […] The equilibrium binding constant KD was determined by the ratio of binding rate constants kd/kₐ

[6] = target: T2, dimeric hActRIIA; assay: as above
Protocol: as §2, §3

[7] = target: T3, monomeric hActRIIB; assay: SPR (Biacore), 37 C
[8] = target: T4, dimeric hActRIIB; assay: SPR (Biacore), 37 C
[9] = target: T1, monomeric hActRIIA; assay: SPR (Biacore), 37 C
[10] = target: T2, dimeric hActRIIA; assay: SPR (Biacore), 37 C

T1 sequence (P27037 21-138 limits assumed): as the sequence (P27037 21-138) above

binding result [1] | binding result [2] | Kd [3] [nM] | koff [3] [s⁻¹] | kon [3] [M⁻¹ s⁻¹] | Kd [4] [nM] | koff [4] [s⁻¹] | kon [4] [M⁻¹ s⁻¹] | Kd [7] [nM] | koff [7] [s⁻¹] | kon [7] [M⁻¹ s⁻¹] | Kd [8] [nM] | koff [8] [s⁻¹] | kon [8] [M⁻¹ s⁻¹] | Kd [10] [nM] | koff [10] [s⁻¹] | kon [10] [M⁻¹ s⁻¹] | other results | Binder
no binding | no binding | 2.19 | 0.00354 | 1.61e+06 | 0.302 | 0.00025 | 828000 | – | – | – | – | – | – | – | – | – | – | D01 (antibody, human IgG1, kappa, V domains shown, Human IgG) VH: QVQLQESGPGLVKPSQTLSLTCTVSGGSIESGGYYWSWIRQHPGKGLEWIGGIYGSGSTYYNPSLKSRVTISVDTSKNQFSLKLSSVTAADTAVYYCARDSGIGYSYASSHGYYYYMDVWGKGTTVTVSS VL: EIVLTQSPATLSVSPGERATLSCRASQSVGSNLAWYQQKPGQAPRLLIYGASTRATGIPARFSGSGSGTEFTLTISSLQSEDFAVYYCQQYFHFPLTFGGGTKVEIKR
– | – | 1150 | 0.198 | 172000 | 1.21 | 0.000128 | 106000 | – | – | – | – | – | – | – | – | – | binding result [5]: no binding; binding result [6]: no binding | A01 (antibody, human IgG1, kappa, V domains shown, Human IgG from yeast libraries; also called A01 Parent; A01 (naïve parent)) VH: QLQLQESGPGLVKPSETLSLTCTVSGGSISSSSYAWGWIRQPPGKGLEWIGSIYYSGSTYYNPSLKSRVTISVDTSKNQFSLKLSSVTAADTAVYYCARDSGIGYSYASSHGYYYYMDVWGKGTTVTVSS VL: EIVLTQSPATLSVSPGERATLSCRASQSVGSNLAWYQQKPGQAPRLLIYGASTRATGIPARFSGSGSGTEFTLTISSLQSEDFAVYYCQQYFHFPLTFGGGTKVEIKR
no binding | no binding | 5.22 | 0.00712 | 1.37e+06 | 0.236 | 0.000188 | 797000 | – | – | – | – | – | – | – | – | – | – | C01 (antibody, human IgG1, kappa, V domains shown, Human IgG) VH: QVQLQESGPGLVKPSQTLSLTCTVSGGSISSGGYFWSWIRQHPGKGLEWIGGIYYSGRTYYNPSLKSRVTISVDTSKNQFSLKLSSVTAADTAVYYCARDSGIGYSYASSHGYYYYMDVWGKGTTVTVSS VL: EIVLTQSPATLSVSPGERATLSCRASQSVGSNLAWYQQKPGQAPRLLIYGASTRATGIPARFSGSGSGTEFTLTISSLQSEDFAVYYCQQYFHFPLTFGGGTKVEIKR
no binding | no binding | 2.45 | 0.00415 | 1.7e+06 | 0.376 | 0.000292 | 777000 | – | – | – | – | – | – | – | – | – | – | E01 (antibody, human IgG1, kappa, V domains shown, Human IgG) VH: QVQLQESGPGLVKPSQTLSLTCTVSGGSIGSGGYYWSWIRQHPGKGLEWIGGIYGSGSTYYNPSLKSRVTISVDTSKNQFSLKLSSVTAADTAVYYCARDSGIGYSYASSHGYYYYMDVWGKGTTVTVSS VL: EIVLTQSPATLSVSPGERATLSCRASQSVGSNLAWYQQKPGQAPRLLIYGASTRATGIPARFSGSGSGTEFTLTISSLQSEDFAVYYCQQYFHFPLTFGGGTKVEIKR
no binding | no binding | 3.32 | 0.00444 | 1.34e+06 | 0.36 | 0.000216 | 601000 | – | – | – | – | – | – | – | – | – | – | F01 (antibody, human IgG1, kappa, V domains shown, Human IgG) VH: QVQLQESGPGLVKPSQTLSLTCTVSGGSIKSGGYYWSWIRQHPGKGLEWIGGIYPSGSTYYNPSLKSRVTISVDTSKNQFSLKLSSVTAADTAVYYCARDSGIGYSYASSHGYYYYMDVWGKGTTVTVSS VL: EIVLTQSPATLSVSPGERATLSCRASQSVGSNLAWYQQKPGQAPRLLIYGASTRATGIPARFSGSGSGTEFTLTISSLQSEDFAVYYCQQYFHFPLTFGGGTKVEIKR
no binding | no binding | 3.64 | 0.0034 | 1.09e+06 | 0.393 | 0.000246 | 626000 | – | – | – | – | – | – | – | – | – | – | B01 (antibody, V domains shown, Human IgG) VH: QVQLQESGPGLVKPSQTLSLTCTVSGGSILSGGYYWSWIRQHPGKGLEWIGGIYYSGKTYYNPSLKSRVTISVDTSKNQFSLKLSSVTAADTAVYYCARDSGIGYSYASSHGYYYYMDVWGKGTTVTVSS VL: EIVLTQSPATLSVSPGERATLSCRASQSVGSNLAWYQQKPGQAPRLLIYGASTRATGIPARFSGSGSGTEFTLTISSLQSEDFAVYYCQQYFHFPLTFGGGTKVEIK
– | – | – | – | – | – | – | – | 0.65 | 0.000291 | 447000 | 0.727 | 0.000123 | 170000 | 0.316 | 0.000106 | 336000 | Kd [9]: 18.6 nM; koff [9]: 0.00684 s⁻¹; kon [9]: 369000 M⁻¹ s⁻¹ | D02 (antibody, human IgG1, V domains shown, Human IgG) VH: QVQLVQSGAEVKKPGASVKVSCKASGYTFTSYRMHWVRQAPGQGLEWMGFIVPSGGSTSYAQKFQGRVTMTRDTSTSTVYMELSSLRSEDTAVYYCARVSMYAPEPMDVWGQGTTVTVSS VL: DIQMTQSPSSVSASVGDRVTITCRASQGISRWLAWYQQKPGKAPKLLIYAASSLQSGVPSRFSGSGSGTDFTLTISSLQPEDFATYYCQQAFSHPWTFGGGTKVEIK
– | – | – | – | – | – | – | – | 0.528 | 0.000515 | 975000 | 0.333 | 9.64e-05 | 289000 | 0.153 | 8.02e-05 | 524000 | Kd [9]: 26.4 nM | C02 (antibody, human IgG1, V domains shown, Human IgG) VH: QVQLVQSGAEVKKPGASVKVSCKASGYTFTSYNMAWVRQAPGQGLEWMGIIRPSVGSTSYAQKFQGRVTMTRDTSTSTVYMELSSLRSEDTAVYYCARVSMYAPEPMDVWGQGTTVTVSS VL: DIQMTQSPSSVSASVGDRVTITCRASQGISRWLAWYQQKPGKAPKLLIYAASSLQSGVPSRFSGSGSGTDFTLTISSLQPEDFATYYCQQAFSHPWTFGGGTKVEIK
– | – | – | – | – | – | – | – | 0.194 | 0.000203 | 1.05e+06 | 0.0226 | 1.04e-05 | 459000 | – | – | – | – | D03 (antibody, human IgG1, Human IgG) heavy: not shown light: DIQMTQSPSSVSASVGDRVTITCRASQGISRWLAWYQQKPGKAPKLLIYAASSLQSGVPSRFSGSGSGTDFTLTISSLQPEDFATYYCQQAFSHPWTFGGGTKVEIK
– | – | – | – | – | – | – | – | 22 | 0.0662 | 3.02e+06 | 0.511 | 0.000112 | 219000 | 1.78 | 0.000627 | 353000 | – | A02 (antibody, human IgG1, V domains shown, Human IgG; also called A02 Parent) VH: QVQLVQSGAEVKKPGASVKVSCKASGYTFTSYGISWVRQAPGQGLEWMGWISPYNGNTNYAQKLQGRVTMTTDTSTSTAYMELRSLRSDDTAVYYCARVSMYAPEPMDVWGQGTTVTVSS VL: DIQMTQSPSSVSASVGDRVTITCRASQGISRWLAWYQQKPGKAPKLLIYAASSLQSGVPSRFSGSGSGTDFTLTISSLQPEDFATYYCQQAFSHPWTFGGGTKVEIK
– | – | – | – | – | – | – | – | 1.1 | 0.001 | 905000 | 0.649 | 0.00021 | 323000 | 0.338 | 0.000167 | 495000 | Kd [9]: 8.13 nM; koff [9]: 0.00593 s⁻¹; kon [9]: 729000 M⁻¹ s⁻¹ | B02 (antibody, human IgG1, V domains shown, Human IgG) VH: QVQLVQSGAEVKKPGASVKVSCKASGYTFTGHKMHWVRQAPGQGLEWMGWINPASGWTNYAQKFQGRVTMTRDTSISTAYMELSRLRSDDTAVYYCARVSMYAPEPMDVWGQGTTVTVSS VL: DIQMTQSPSSVSASVGDRVTITCRASQGISRWLAWYQQKPGKAPKLLIYAASSLQSGVPSRFSGSGSGTDFTLTISSLQPEDFATYYCQQAFSHPWTFGGGTKVEIK
